From patent US7078174B1, “Screening methods using SOCS box-containing peptides” (The Walter & Eliza Hall Institute of Medical Research, priority 1998, dated 2006)

B1: WSB-2: N-terminally FLAG-tagged WSB-2 protein transfected into 293T fibroblasts (protein)
chain: DYKDDDDKMEAGEEPLLLAELKPGRPHQFDWKSSCETWSVAFSPDGSWFAWSQGHCVVKLVPWPLEEQFIPKGFEAKSRSSKNDPKGRGSLKEKTLDCGQIVWGLAFSPWPSPPSRKLWARHHPQAPDVSCLILATGLNDGQIKIWEVQTGLLLLNLSGHQDVVRDLSFTPSGSLILVSASRDKTLRIWDLNKHGKQIQVLSGHLQWVYCCSISPDCSMLCSAAGEKSVFLWSMRSYTLIRKLEGHQSSVVSCDFSPDSALLVTASYDTSVIMWDPYTGERLRSLHHTQLEPTMDDSDVHMSSLRSVCFSPEGLYLATVADDRLLRIWALELKAPVAFAPMTNGLCCTFFPHGGIIATGTRDGHVQFWTAPRVLSSLKHLCRKALRSFLTTYQVLALPIPKKMKEFLTYRTF
B2: full-length SOCS-1: N-terminally FLAG-tagged full-length mouse SOCS-1 stably expressed in M1 cells (protein)
chain: DYKDDDDKMVARNQVAADNAISPAAEPRRRSEPSSSSSSSSPAAPVRPRPCPAVPAPAPGDTHFRTFRSHSDYRRITRTSALLDACGFYWGPLSVHGAHERLRAEPVGTFLVRDSRQRNCFFALSVKMASGPTSIRVHFQAGRFHLDGSRETFDCLFELLEHYVAAPRRMLGAPLRQRRVRPLQELCRQRIVAAVGRENLARIPLNPVLRDYLSSFPFQI
B3: SSB-1: N-terminally FLAG-tagged SSB-1 protein transfected into 293T fibroblasts (protein)
chain: DYKDDDDKMGQKVTGGIKTVDMRDPTYRPLKQELQGLDYCKPTRLDLLLDMPPVSYDVQLLHSWNNNDRSLNVFVKEDDKLIFHRHPVAQSTDAIRGKVGYTRGLHVWQITWAMRQRGTHAVVGVATADAPLHSVGYTTLVGNNHESWGWDLGRNRLYHDGKNQPSKTYPAFLEPDETFIVPDSFLVALDMDDGTLSFIVDGQYMGVAFRGLKGKKLYPVVSAVWGHCEIRMRYLNGLDPEPLPLMDLCRRSVRLALGKERLGAIPALPLPASLKAYLLYQ

What was measured:
elongins B and C = biological target: T1, elongins B and C (Mus musculus, UniProt P62869+P83940); experiment: Co-transfection of 293T cells with SOCS box proteins and elongins B and C, co-immunoprecipitation; format: binding; details: anti-myc immunoprecipitation, anti-FLAG Western blot
T1 construct: expressed in transfected cells; host or cells: 293T human fibroblast cell line, vector pEF-BOS
T1 sequence (P83940 whole entry): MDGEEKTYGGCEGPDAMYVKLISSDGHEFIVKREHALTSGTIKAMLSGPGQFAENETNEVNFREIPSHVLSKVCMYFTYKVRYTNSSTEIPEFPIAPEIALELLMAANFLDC
T1 sequence (P62869 whole entry): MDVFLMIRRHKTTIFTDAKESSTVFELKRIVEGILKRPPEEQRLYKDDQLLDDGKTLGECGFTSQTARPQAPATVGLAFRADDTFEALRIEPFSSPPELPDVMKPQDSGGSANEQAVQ
Excerpt: The cDNAs encoding mouse SOCS-1, SOCS-3, WSB-1, SSB-1, ASB-1, have been described previously (1,8). Constructs in pEF-FLAG1 encoding these proteins, with or without the SOCS box, with an N-terminal FLAG epitope tag (DYKDDDDK) (SEQ ID NO:1) were generated by PCR essentially as described (8) (found at http://www.wehi.edu.au/willson vectors). DNA fragments encoding mouse elongins B and C were amplified using PCR from a 17-day embryo cDNA lambda library (Clontech ML5014t) and were expressed with N-terminal FLAG or myc (DQKLISEEDL) (SEQ ID NO:2) epitope tags, respectively, using the mammalian expression vector pEF-BOS.
The murine monocytic leukemic cell line, M1, and the 293T human fibroblast cell line were maintained and transfected as described (8).
(§1) Proteins were immunoprecipitated with anti-myc (9E10; WEHI) and protein A-Sepharose or anti-FLAG antibody conjugated to Sepharose (KM5-IC7; WEHI) and separated by sodium dodecyl sulphate-polyacrylamide gel electrophoresis (SDS-PAGE) (Biorad, Hercules, Calif.) under reducing conditions. Proteins were then electrophoretically transferred to PVDF-Plus membranes (Micron Separations Inc. WestBorough, Mass.) and Western blotted as described (8).

[1] = biological target: T2, endogenous elongins B and C (Mus musculus, UniProt P62869+P83940); experiment: Interaction of FLAG-tagged SOCS-1 with endogenous elongins in M1 cells (anti-FLAG resin, Western blot); format: binding, murine; details: M1 cells stably expressing FLAG-tagged protein, anti-FLAG immunoprecipitation
T2 construct: endogenous in cells; host or cells: M1 murine monocytic leukemic cells
T2 sequence (P83940 whole entry): as the sequence (P83940 whole entry) above
T2 sequence (P62869 whole entry): as the sequence (P62869 whole entry) above
Procedure: Two liters of M1 cells stably expressing either full-length SOCS-1 or SOCS-1 lacking SOCS box (with N-terminal FLAG epitopes) were grown in DME containing 5% bovine calf serum, 10 μg/ml puromycin and 50 ng/ml murine IL-6. The cells were harvested and incubated in 20 ml of culture media containing 10 μM proteasome-specific inhibitor, N-acetyl-L-leucinyl-L-leucinyl-norleucinal (LLnL; Sigma, St. Louis, Mo.) for 30 min at 37° C. The cells were lysed in 14 ml of lysis buffer supplemented with protease inhibitors (Complete Cocktail tablets), 1 mM PMSF, 1 mM Na3VO4, 1 mM NaF and 10 μM LLnL. Total cell lysates were centrifuged at 15,000 rpm (SS34 rotor) for 15 min at 4° C. and the clarified supernatants incubated with 0.3 ml of M2 anti-FLAG antibody resin for 3 h at 4° C. Resin was then washed with 10 ml of lysis buffer and the bound proteins were eluted with 6×150 μl of 100 μg/m FLAG peptide in lysis buffer.
as §1

[2] = test system: elongin B, elongin C, cullin 2, JAK1, gp130; experiment: Analysis of proteins interacting with SOCS-1 in unstimulated M1 cells (anti-FLAG affinity column, Western blot); format: binding, murine; details: 10^9 unstimulated M1 cells, anti-FLAG affinity column eluate
Excerpt: The inventors passed lysates from 10^9 unstimulated M1 cells expressing FLAG-tagged SOCS-1 through an anti-FLAG affinity column which was then eluted with FLAG peptide. The eluate was then subjected to SDS-PAGE and the proteins were Western blotted. The blot was then probed with anti-FLAG antibodies to confirm the presence of SOCS-1 and with a range of antibodies against proteins thought to interact with SOCS-1 (FIG. 7). […] To determine whether proteins in this complex interact directly or indirectly with SOCS-1, or whether all the proteins can be found together in a single complex, or whether separate complexes are, for example, formed between SOCS-1, JAK-1 and gp130 on one hand and between SOCS-1, elongin B and C and cullin-2, is addressed in part by performing the primary immunoprecipitation using a different antibody.
Further, the nature of the complex is analyzed by repeating experiments using a mutant SOCS protein which lacks one or more domains. In the case described above, the inventors have performed an identical analysis using M1 cells expressing a FLAG-tagged mutant of SOCS-1 lacking the SOCS box. […] This type of experiment addresses whether interactions are direct or indirect. Further analysis involves approaches of the type described below.

Molecule | co-immunoprecipitation with elongin C (and elongin B) (elongins B and C) | association with endogenous elongins B and C [1] | complex formation with elongin B, elongin C, cullin 2, JAK1 and gp130 [2]
B1 | found to co-immunoprecipitate along with elongin B with elongin C |  | 
B2 |  | associated with bound elongins B and C | capable of forming a complex with elongin B and elongin C, cullin 2, as well as JAK1 and gp130
B3 | found to co-immunoprecipitate along with elongin B with elongin C |  | 
